Assay results published in article PMC5082758, “A Novel Pathway for Metabolism of the Cardiovascular Risk Factor Homoarginine by alanine:glyoxylate aminotransferase 2” (Scientific Reports, 2016).

Legend:
[1] = substrate: C[C@H](N)C(=O)O; assay: purified protein; details: amino donor, co-substrate 1 mM glyoxylate, PLP added (200 μM in methods, 100 μM in Figure 3 legend), potassium phosphate pH 8, 0.15 M NaCl, 25 °C
[2] = substrate: N=C(N)NCCCC[C@H](N)C(=O)O; assay: purified protein; format: biochemical, Homo sapiens; details: amino donor, co-substrate 1 mM pyruvate, PLP added (200 μM in methods, 100 μM in Figure 3 legend), potassium phosphate pH 8, 0.15 M NaCl, 25 °C

B1: human alanine:glyoxylate aminotransferase 2 (AGXT2) (Homo sapiens) (protein)
chain: LHTKPRMPPCDFMPERYQSLGYNRVLEIHKEHLSPVVTAYFQKPLLLHQGHMEWLFDAEGSRYLDFFSGIVTVSVGHCHPKVNAVAQKQLGRLWHTSTVFFHPPMHEYAEKLAALLPEPLKVIFLVNSGSEANELAMLMARAHSNNIDIISFRGAYHGCSPYTLGLTNVGTYKMELPGGTGCQPTMCPDVFRGPWGGSHCRDSPVQTIRKCSCAPDCCQAKDQYIEQFKDTLSTSVAKSIAGFFAEPIQGVNGVVQYPKGFLKEAFELVRARGGVCIADEVQTGFGRLGSHFWGFQTHDVLPDIVTMAKGIGNGFPMAAVITTPEIAKSLAKCLQHFNTFGGNPMACAIGSAVLEVIKEENLQENSQEVGTYMLLKFAKLRDEFEIVGDVRGKGLMIGIEMVQDKISCRPLPREEVNQIHEDCKHMGLLVGRGSIFSQTFRIAPSMCITKPEVDFAVEVFRSALTQHMERRAK
notes: C-terminal FLAG fusion under CAG promoter; tag kept
Km [1]: 25 ± 3 mM | kcat [1]: 0.142 ± 0.0083 s⁻¹ | kcat/Km [1]: 5.67 M⁻¹ s⁻¹ | Km [2]: 24 ± 3 mM | kcat [2]: 0.0188 ± 0.00067 s⁻¹ | kcat/Km [2]: 0.783 ± 0.1 M⁻¹ s⁻¹
